Molecular target: T1, Mtu DnaB intein (IVPS) (Mycobacterium tuberculosis, UniProt P9WMR3)
T1 sequence (P9WMR3 whole entry, looked up): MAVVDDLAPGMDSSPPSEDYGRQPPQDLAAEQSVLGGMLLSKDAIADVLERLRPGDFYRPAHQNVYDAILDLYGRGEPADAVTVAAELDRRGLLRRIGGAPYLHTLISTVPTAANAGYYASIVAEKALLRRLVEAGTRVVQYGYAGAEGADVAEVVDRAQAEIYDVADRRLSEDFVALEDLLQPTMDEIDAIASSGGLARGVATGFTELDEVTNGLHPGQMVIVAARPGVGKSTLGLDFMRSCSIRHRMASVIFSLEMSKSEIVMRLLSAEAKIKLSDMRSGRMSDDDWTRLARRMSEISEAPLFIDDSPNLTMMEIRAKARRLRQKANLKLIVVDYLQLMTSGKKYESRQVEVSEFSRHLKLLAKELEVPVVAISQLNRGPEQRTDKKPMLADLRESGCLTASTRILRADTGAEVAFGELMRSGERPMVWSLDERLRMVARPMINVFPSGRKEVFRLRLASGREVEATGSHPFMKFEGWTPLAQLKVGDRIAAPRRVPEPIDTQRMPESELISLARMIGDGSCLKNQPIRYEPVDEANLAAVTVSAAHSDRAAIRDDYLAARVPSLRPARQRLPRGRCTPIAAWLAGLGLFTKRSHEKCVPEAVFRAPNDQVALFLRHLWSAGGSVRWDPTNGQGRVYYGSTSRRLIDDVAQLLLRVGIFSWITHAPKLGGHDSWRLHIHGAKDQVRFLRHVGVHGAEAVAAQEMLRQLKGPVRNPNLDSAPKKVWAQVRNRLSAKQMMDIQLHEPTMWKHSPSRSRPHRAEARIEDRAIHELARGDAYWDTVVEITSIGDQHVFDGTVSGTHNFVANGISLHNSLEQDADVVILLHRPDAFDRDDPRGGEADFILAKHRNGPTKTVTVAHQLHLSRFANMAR
Format: cell-based
Details: E. coli, peptide in chicken α-spectrin loop on pEA825 (wild type Mtu dnaB), 37° C., 1 mM IPTG for 3 hours, crude cell extracts, anti-T7 tag immuno-staining

| Substance | protein splicing of the Mtu DnaB intein (detection of Mtu DnaB protein splicing products) |
| --- | --- |
| PTRPTAPPLNFS [pEA817] | selected for inhibition of splicing |
| DLPMVEE [pEA818rev, reference compound] | occurred as efficiently as with the pMtu DnaB clone |
| RPAPRPL [pEA815] | selected for inhibition of splicing |
| PTARTYE [pEA816] | selected for inhibition of splicing |
| TVQSTKR [pEA814] | selected for inhibition of splicing |
| HPNPHPTLSGQR [pEA818] | selected for inhibition of splicing |
